The values that follow come from patent US20070218061A1 (VASGENE THERAPEUTICS, published 2007).

Like-named read-outs stand apart in the source and are kept apart here.

Test [1] has as its target HeV and NiV F and G envelope glycoproteins (on effector cells). Kind of test: cell-based or functional assay.
For test [2] the target is unchanged. The experiment in a line: cell-based or functional assay. The source holds these as a separate data set.
The target of the next test is T1, B4ECv3 (human, UniProt P54760 16-537).
T1 construct: also called B4ECv3 protein
T1 sequence: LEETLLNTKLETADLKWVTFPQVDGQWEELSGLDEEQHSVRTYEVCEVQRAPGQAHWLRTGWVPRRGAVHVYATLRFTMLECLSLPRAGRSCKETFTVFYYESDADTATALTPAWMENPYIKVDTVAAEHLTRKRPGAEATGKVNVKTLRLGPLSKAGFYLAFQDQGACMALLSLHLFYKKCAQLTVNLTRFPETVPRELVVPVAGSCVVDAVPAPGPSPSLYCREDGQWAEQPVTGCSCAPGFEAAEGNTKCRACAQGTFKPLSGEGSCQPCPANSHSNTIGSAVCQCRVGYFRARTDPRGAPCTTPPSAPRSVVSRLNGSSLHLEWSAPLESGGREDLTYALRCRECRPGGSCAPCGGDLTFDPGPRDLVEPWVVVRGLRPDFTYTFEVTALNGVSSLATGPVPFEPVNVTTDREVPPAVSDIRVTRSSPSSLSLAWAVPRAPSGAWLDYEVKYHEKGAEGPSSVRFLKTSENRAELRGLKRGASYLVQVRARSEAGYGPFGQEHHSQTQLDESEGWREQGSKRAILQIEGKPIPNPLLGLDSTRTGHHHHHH
The experiment in a line: biochemical assays; B4ECv3 on Ni-NTA agarose, 50 nM B2-AP, PNPP colorimetry.

“Bovine Serum Albumin (from UniProt P02769 25-607)”: in test [1], the % fusion (cell fusion assay), 0.1 µg/ml inhibitor stood at 112%; the % fusion (cell fusion assay), 1.0 µg/ml inhibitor was found to be 112%; the % fusion (cell fusion assay), 10 µg/ml inhibitor was found to be 124%; the % fusion (cell fusion reporter gene assay, beta-Gal), 10 µg/ml protein was 126%.
Regarding “Murine EphrinB2-Ec-Fc (from UniProt P52800 29-232) (Fc fusion)”, in test [1], the % fusion (cell fusion assay), 0.1 µg/ml inhibitor was found to be 70.7%; the % fusion (cell fusion assay), 1.0 µg/ml inhibitor came to 1.87%; the % fusion (cell fusion assay), 10 µg/ml inhibitor was 2.93%; the % fusion (cell fusion reporter gene assay, beta-Gal), 10 µg/ml protein stood at 8.33%.
With “human EphrinB2EC-Human serum albumin fusion protein (from UniProt P52799 28-229)”, in test [1], the % fusion (cell fusion assay), 0.1 µg/ml inhibitor turned out to be 85.3%; the % fusion (cell fusion assay), 1.0 µg/ml inhibitor is 115%; the % fusion (cell fusion assay), 10 µg/ml inhibitor was 64%; the % fusion (cell fusion reporter gene assay, beta-Gal), 10 µg/ml protein turned out to be 54.8%.
Regarding “Inactivated Human EphrinB2-Ec (from UniProt P52799 28-225) (ligand)”, in test [1], the % fusion (cell fusion assay), 0.1 µg/ml inhibitor is 103%; the % fusion (cell fusion assay), 1.0 µg/ml inhibitor was determined as 104%; the % fusion (cell fusion assay), 10 µg/ml inhibitor is 77.3%; the % fusion (cell fusion reporter gene assay, beta-Gal), 10 µg/ml protein was determined as 83.3%.

B1: Murine EphrinB1-EC-Fc (Fc fusion)
chain: ATPLAKNLEPVSWSSLNPKFLSGKGLVIYPKIGDKLDIICPRAEAGRPYEYYKLYLVRPEQAAACSTVLDPNVLVTCNKPHQEIRFTIKFQEFSPNYMGLEFKKYHDYYITSTSNGSLEGLENREGGVCRTRTMKIVMKVGQDPNAVTPEQLTTSRPSKESDNTVKTATQAPGRGSQGDSDGKHETVNQEEKSGPGAGGGGSGDSDSFFNSK
As to B1, in test [2], the % fusion (cell fusion assay), 0.1 µg/ml inhibitor stood at 109%; the % fusion (cell fusion assay), 1.0 µg/ml inhibitor is 133%; the % fusion (cell fusion assay), 10 µg/ml inhibitor amounted to 147%; the % fusion (cell fusion reporter gene assay, beta-Gal), 10 µg/ml protein turned out to be 140%.

B2: EphrinB2EC-AP from pAPTag2 (ligand)
chain: IVLEPIYWNSSNSKFLPGQGLVLYPQIGDKLDIICPKVDSKTVGQYEYYKVYMVDKDQADRCTIKKENTPLLNCAKPDQDIKFTIKFQEFSPNLWGLEFQKNKDYYIISTSNGSLEGLDNQEGGVCQTRAMKILMKVGQDASSAGSTRNKDPTRRPELEAGTNGRSSTTSPFVKPNPGSSTDGNSAGHSGNNILGSEGSSGIIPVEEENPDFWNREAAEALGAAKKLQPAQTAAKNLIIFLGDGMGVSTVTAARILKGQKKDKLGPEIPLAMDRFPYVALSKTYNVDKHVPDSGATATAYLCGVKGNFQTIGLSAAARFNQCNTTRGNEVISVMNRAKKAGKSVGVVTTTRVQHASPAGTYAHTVNRNWYSDADVPASARQEGCQDIATQLISNMDIDVILGGGRKYMFPMGTPDPEYPDDYSQGGTRLDGKNLVQEWLAKRQGARYVWNRTELMQASLDPSVTHLMGLFEPGDMKYEIHRDSTLDPSLMEMTEAALRLLSRNPRGFFLFVEGGRIDHGHHESRAYRALTETIMFDDAIERAGQLTSEEDTLSLVTADHSHVFSFGGYPLRGSSIFGLAPGKARDRKAYTVLLYGNGPGYVLKDGARPDVTESESGSPEYRQQSAVPLDEETHAGEDVAVFARGPQAHLVHGVQEQTFIAHVMAFAACLEPYTACDLAPPAGTTDAAHPG
notes: also called B2-AP; B2ECAP reagent
Turning to B2, the binding result with B4ECv3 was “binds”.

B3: Murine EphrinA2-EC-Fc (Fc fusion)
chain: RNEDPARANADRYAVYWNRSNPRFQVSAVGDGGGYTVEVSINDYLDIYCPHYGAPLPPAERMERYILYMVNGEGHASCDHRQRGFKRWECNRPAAPGGPLKFSEKFQLFTPFSLGFEFRPGHEYYYISATPPNLVDRPCLRLKVYVRPTNETLYEAPEPIFTSN
Take B3: in test [2], the % fusion (cell fusion assay), 0.1 µg/ml inhibitor was 81.3%; the % fusion (cell fusion assay), 1.0 µg/ml inhibitor was determined as 104%; the % fusion (cell fusion assay), 10 µg/ml inhibitor worked out at 112%; the % fusion (cell fusion reporter gene assay, beta-Gal), 10 µg/ml protein was 117%.
